Where two headings read alike, the source gives them in different places.
T1: human FLT3 on the AML5 cell line (human, UniProt P36888 27-993)
T1 sequence (looked up): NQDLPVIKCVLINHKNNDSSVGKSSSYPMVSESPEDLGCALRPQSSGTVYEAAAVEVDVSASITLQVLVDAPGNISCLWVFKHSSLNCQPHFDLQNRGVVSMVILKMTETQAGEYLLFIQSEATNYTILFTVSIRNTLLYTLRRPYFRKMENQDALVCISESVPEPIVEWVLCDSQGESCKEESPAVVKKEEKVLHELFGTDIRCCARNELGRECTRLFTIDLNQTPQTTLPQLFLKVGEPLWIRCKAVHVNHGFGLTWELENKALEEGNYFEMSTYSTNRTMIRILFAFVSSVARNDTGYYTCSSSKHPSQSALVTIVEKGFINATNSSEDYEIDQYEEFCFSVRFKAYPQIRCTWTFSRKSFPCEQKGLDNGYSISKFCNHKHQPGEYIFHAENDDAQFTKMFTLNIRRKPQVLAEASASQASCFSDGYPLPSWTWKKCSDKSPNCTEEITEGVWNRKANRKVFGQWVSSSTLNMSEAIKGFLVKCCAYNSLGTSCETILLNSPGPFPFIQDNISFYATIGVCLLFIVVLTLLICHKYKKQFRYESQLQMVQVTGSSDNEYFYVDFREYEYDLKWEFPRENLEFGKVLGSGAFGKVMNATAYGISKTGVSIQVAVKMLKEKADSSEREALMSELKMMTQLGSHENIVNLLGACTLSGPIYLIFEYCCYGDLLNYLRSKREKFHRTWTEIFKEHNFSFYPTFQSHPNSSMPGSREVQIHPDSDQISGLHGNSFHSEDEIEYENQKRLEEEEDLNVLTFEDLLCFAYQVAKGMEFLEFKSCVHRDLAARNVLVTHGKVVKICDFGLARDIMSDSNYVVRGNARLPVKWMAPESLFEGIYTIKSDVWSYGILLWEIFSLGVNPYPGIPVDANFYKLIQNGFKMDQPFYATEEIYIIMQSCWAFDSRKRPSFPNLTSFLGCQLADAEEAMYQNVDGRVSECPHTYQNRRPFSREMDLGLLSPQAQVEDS

T2: his-tagged recombinant human Flt3 receptor (Sino Biologicals) (human, UniProt P36888 27-541, limits assumed)
T2 construct: Bought protein; also called human recombinant FLT3; not shown: His tag
T2 sequence (looked up): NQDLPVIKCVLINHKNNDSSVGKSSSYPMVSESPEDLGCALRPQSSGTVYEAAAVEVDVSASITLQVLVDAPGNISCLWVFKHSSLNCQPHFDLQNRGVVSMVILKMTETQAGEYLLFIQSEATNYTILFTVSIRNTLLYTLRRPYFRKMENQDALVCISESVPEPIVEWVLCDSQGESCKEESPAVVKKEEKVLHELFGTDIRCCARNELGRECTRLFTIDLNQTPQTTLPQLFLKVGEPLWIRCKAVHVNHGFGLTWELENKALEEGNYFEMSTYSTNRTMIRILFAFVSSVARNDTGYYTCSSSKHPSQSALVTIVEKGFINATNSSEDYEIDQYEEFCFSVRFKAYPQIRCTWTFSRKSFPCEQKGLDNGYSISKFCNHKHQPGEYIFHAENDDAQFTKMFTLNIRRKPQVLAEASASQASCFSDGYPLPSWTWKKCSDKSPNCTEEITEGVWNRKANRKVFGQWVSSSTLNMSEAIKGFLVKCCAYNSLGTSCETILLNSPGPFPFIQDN


Key:
recombinant human FcRn [1] = target: T3, recombinant human FcRn (human, UniProt P55899 24-297; P61769 21-119, limits assumed); experiment: FcRn ELISA
T3 construct: a beta-2-microglobulin chain is not mentioned; also called human recombinant FcRn

recombinant human FcRn [2] = target: T3, recombinant human FcRn; experiment: ELISA; recombinant human FcRn coated, serially diluted test article, anti-human (H+L)-HRP, 4PL fit
Method: (§1) Graph is a result of one experiment. Experiment was performed in duplicate. Error bars represent standard deviation of the mean values.
(§2) Signal was developed using TMB substrate then quenched prior to reading absorbance at 450-650 nm on a SpectraMax plate reader.

[3] = target: T1, human FLT3 on the AML5 cell line; experiment: cell-based or functional assay
[4] = target: T4, recombinant human C1q protein (Fitzgerald) (human, UniProt P02745 23-245; P02746 28-253; P02747 29-245, limits assumed); experiment: ELISA, test article immobilized, C1q added; text: devoid of C1q binding ability
T4 construct: also called human recombinant complement protein, C1q

[5] = target: T2, his-tagged recombinant human Flt3 …; experiment: ELISA; His-tagged recombinant human Flt3 on nickel plate, serially diluted Flt3L-Fc, anti-human (H+L)-HRP, 4PL fit
Method: as §1
(§3) Signal was developed using TMB substrate then quenched prior to reading absorbance at 450 nm on a SpectraMax plate reader.

[6] = target: T2, his-tagged recombinant human Flt3 …; experiment: as above; remark: listed apart in the source
From the text: Graph is a result of one experiment.
as §3

[7] = target: T1, human FLT3 on the AML5 cell line; experiment: cell-based or functional assay; remark: listed apart in the source
[8] = target: T1, human FLT3 on the AML5 cell line; experiment: cell-based or functional assay; remark: listed apart in the source
[9] = target: T1, human FLT3 on the AML5 cell line; experiment: cell-based or functional assay; remark: listed apart in the source
[10] = target: T1, human FLT3 on the AML5 cell line; experiment: cell-based or functional assay; remark: listed apart in the source
[11] = target: T4, recombinant human C1q protein …; experiment: ELISA, test article immobilized, C1q added; text: devoid of C1q binding ability; remark: listed apart in the source
recombinant human FcRn [12] = target: T3, recombinant human FcRn; experiment: ELISA; recombinant human FcRn coated, serially diluted test article, anti-human (H+L)-HRP, 4PL fit; estimate, no saturating signal
Method: as §1, §2

T4 sequence (P02745 23-245 limits assumed, chain 1 of 3): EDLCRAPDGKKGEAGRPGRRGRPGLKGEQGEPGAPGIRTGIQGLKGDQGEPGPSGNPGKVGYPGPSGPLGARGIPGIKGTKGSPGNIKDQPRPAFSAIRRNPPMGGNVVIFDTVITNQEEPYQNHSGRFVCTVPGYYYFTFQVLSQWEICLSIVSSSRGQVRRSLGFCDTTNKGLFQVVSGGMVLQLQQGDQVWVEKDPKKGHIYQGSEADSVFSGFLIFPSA
T4 sequence (P02746 28-253 limits assumed, chain 2 of 3): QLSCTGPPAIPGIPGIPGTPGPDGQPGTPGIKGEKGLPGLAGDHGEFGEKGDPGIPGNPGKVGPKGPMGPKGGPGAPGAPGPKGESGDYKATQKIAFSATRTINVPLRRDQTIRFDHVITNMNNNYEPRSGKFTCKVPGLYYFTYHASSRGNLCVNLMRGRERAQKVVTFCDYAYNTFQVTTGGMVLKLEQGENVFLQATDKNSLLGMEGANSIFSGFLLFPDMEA
T4 sequence (P02747 29-245 limits assumed, chain 3 of 3): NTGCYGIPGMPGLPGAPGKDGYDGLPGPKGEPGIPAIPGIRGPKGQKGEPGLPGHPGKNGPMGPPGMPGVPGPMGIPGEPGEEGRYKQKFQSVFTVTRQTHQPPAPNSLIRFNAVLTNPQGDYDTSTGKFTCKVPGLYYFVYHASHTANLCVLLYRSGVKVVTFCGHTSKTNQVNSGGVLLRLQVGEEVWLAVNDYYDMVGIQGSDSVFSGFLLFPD
T3 sequence (P55899 24-297 limits assumed, chain 1 of 2): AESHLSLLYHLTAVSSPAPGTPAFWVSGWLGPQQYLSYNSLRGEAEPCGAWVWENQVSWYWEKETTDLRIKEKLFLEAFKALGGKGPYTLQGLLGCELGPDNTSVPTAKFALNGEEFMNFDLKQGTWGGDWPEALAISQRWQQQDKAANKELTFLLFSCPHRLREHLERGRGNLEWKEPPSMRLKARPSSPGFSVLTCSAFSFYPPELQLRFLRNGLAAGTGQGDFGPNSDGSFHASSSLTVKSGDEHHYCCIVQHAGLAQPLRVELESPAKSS
T3 sequence (P61769 21-119 limits assumed, chain 2 of 2): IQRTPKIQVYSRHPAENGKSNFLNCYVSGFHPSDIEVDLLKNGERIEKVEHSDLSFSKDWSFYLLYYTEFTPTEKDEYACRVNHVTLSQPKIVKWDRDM

Row | Binder | fold increase in FcRn binding against SEQ ID NO:6 (recombinant human FcRn [1]) | EC50 (recombinant human FcRn [2]) | EC50 (nM), AML5 proliferation [3] | binding result [4] | EC50 [5] | EC50 [6] | EC50 (nM), AML5 proliferation [7] | EC50 (nM), AML5 proliferation [8] | EC50 (nM), AML5 proliferation [9] | EC50 (nM), AML5 proliferation [10] | binding result [11] | EC50 (recombinant human FcRn [12]) | fold increase in FcRn binding against SEQ ID NO:1 (recombinant human FcRn [1])
1 | human FLT3-ligand (Δ5 amino acid) human IgG4 (S228P/F234A/L235A/M252Y/S254T/T256E) fusion protein (SEQ ID NO:14) (Fc fusion, also called FLT3L ECD (Δ C-term 5aa (PTAPQ)) - hG4 (S228P/F234A/L235A/M252Y/S254T/T256E)) TQDCSFQHSPISSDFAVKIRELSDYLLQDYPVTVASNLQDEELCGGLWRLVLAQRWMERLKTVAGSKMQGLLERVNTEIHFVTKCAFQPPPSCLRFVQTNISRLLQETSEQLVALKPWITRQNFSRCLELQCQPDSSTLPPPWSPRPLEATAESKYGPPCPPCPAPEAAGGPSVFLFPPKPKDTLYITREPEVTCVVVDVSQEDPEVQFNWYVDGVEVHNAKTKPREEQFNSTYRVVSVLTVLHQDWLNGKEYKCKVSNKGLPSSIEKTISKAKGQPREPQVYTLPPSQEEMTKNQVSLTCLVKGFYPSDIAVEWESNGQPENNYKTTPPVLDSDGSFFLYSRLTVDKSRWQEGNVFSCSVMHEALHNHYTQKSLSLSLGK | 2 fold | 178 nM | 0.046 nM | no binding (tested: 94 nM (highest of the titration)) | 0.92 nM | – | – | – | – | – | – | – | –
2 | human FLT3-ligand human hingeless IgG1 fusion protein (SEQ ID NO:1) (Fc fusion, also called FLT3L ECD-hingeless hG1; hFLT3L ECD) TQDCSFQHSPISSDFAVKIRELSDYLLQDYPVTVASNLQDEELCGGLWRLVLAQRWMERLKTVAGSKMQGLLERVNTEIHFVTKCAFQPPPSCLRFVQTNISRLLQETSEQLVALKPWITRQNFSRCLELQCQPDSSTLPPPWSPRPLEATAPTAPQGGPSVFLFPPKPKDTLMISRTPEVTCVVVDVSHEDPEVKFNWYVDGVEVHNAKTKPREEQYNSTYRVVSVLTVLHQDWLNGKEYKCKVSNKALPAPIEKTISKAKGQPREPQVYTLPPSREEMTKNQVSLTCLVKGFYPSDIAVEWESNGQPENNYKTTPPVLDSDGSFFLYSKLTVDKSRWQQGNVFSCSVMHEALHNHYTQKSLSLSPGK | – | 2330 nM | 0.05 nM | – | 0.81 nM | 0.12 nM | 0.08 nM | 0.078 nM | 0.04 nM | 0.034 nM | no binding (tested: 94 nM (highest of the titration)) | ~151 nM | –
3 | human FLT3-ligand human hingeless IgG1 (M252Y/S254T/T256E) fusion protein (SEQ ID NO:9) (Fc fusion, also called FLT3L ECD-hingeless hG1 (M252Y/S254T/T256E)) TQDCSFQHSPISSDFAVKIRELSDYLLQDYPVTVASNLQDEELCGGLWRLVLAQRWMERLKTVAGSKMQGLLERVNTEIHFVTKCAFQPPPSCLRFVQTNISRLLQETSEQLVALKPWITRQNFSRCLELQCQPDSSTLPPPWSPRPLEATAPTAPQGGPSVFLFPPKPKDTLYITREPEVTCVVVDVSHEDPEVKFNWYVDGVEVHNAKTKPREEQYNSTYRVVSVLTVLHQDWLNGKEYKCKVSNKALPAPIEKTISKAKGQPREPQVYTLPPSREEMTKNQVSLTCLVKGFYPSDIAVEWESNGQPENNYKTTPPVLDSDGSFFLYSKLTVDKSRWQQGNVFSCSVMHEALHNHYTQKSLSLSPGK | – | 61 nM | 0.037 nM | no binding (tested: 94 nM (highest of the titration)) | 0.88 nM | – | – | – | – | – | – | – | 38 fold

Reference: patent US20220389394A1 (Gilead, published 2022)
